Measured values published in patent publication US20150267176.

Experiments:
[1] = tested on: SCL enhancer TALE-3X FLAG; details: anti-FLAG ChIP-seq in K562, input 1; top ranked and only reproducible peak; exact SCL target not identified in text (candidates SEQ 9, 11, 37)
SCL enhancer TALE-LSD1 = experiment: cell_activity; details: K562 ChIP-qPCR vs mCherry; H3K27ac reduced >4-fold
[2] = tested on: TALE-LSD1 #11 (ZFPM2 +16); experiment: cell_activity; details: expression change not significant; histone modification levels at target reduced; +16 matched to #11 by coordinates
[3] = tested on: TALE-LSD1 #25 (ZFPM2 +10); experiment: cell_activity; details: K562 RT-qPCR; +10 enhancer matched to #25 by coordinates; also reduces enhancer histone marks
[4] = tested on: TALE-LSD1 #28 (ZFPM2 +45); experiment: cell_activity; details: expression change not significant; histone modification levels at target reduced; +45 matched to #28 by coordinates

Work on SCL enhancer 18 bp TALE target (18/18) yielded a binding signal (tags per 1 kb bin) [1] of 17.5 and an activity (fold reduction of H3K4me2) (SCL enhancer TALE-LSD1) of 3.
TALE #11 target chr8:106,347,824 gave an activity (% reduction of ZFPM2 expression) [2] of 13.
With TALE #25 target chr8:106,341,287 the activity (fold reduction of ZFPM2 expression) [3] was 2.
TALE #28 target chr8:106,376,850 showed an activity (% reduction of ZFPM2 expression) [4] of 22.
